Results on one molecule are retold here after paper PMC7266993, “STAG1 vulnerabilities for exploiting cohesin synthetic lethality in STAG2-deficient cancers” (Life Science Alliance, 2020).

Experiment [1] concerns the target T1, Biotinylated RAD21 peptide, residues 356-395 (Biotin-Ttds-RAD21 356-395) (human, N-terminal biotin followed by a trioxatridecan–succinamic acid spacer (Biotin-Ttds-)).
T1 construct: Immobilised on a streptavidin (SA) sensor chip through the biotin; source: synthetic peptide, purchased
T1 peptide: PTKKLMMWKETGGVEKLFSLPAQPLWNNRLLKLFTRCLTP
In words: SPR; Biacore S200, SA chip, ~400 RU biotinylated RAD21 356-395 immobilised; STAG1 as analyte, single cycle kinetics 7.5-1,000 nM, 120 s injections; 10 mM Hepes pH 7.5, 150 mM NaCl, 0.5 mM TCEP; 1:1 binding model. Conditions: both partners purified. Background: SPR reads the build-up and loss of mass on a sensor chip optically.

Experiment [2] deals with T1, Biotinylated RAD21 peptide, residues …. The experiment can be described thus: SPR; Biacore S200, SA chip, biotinylated RAD21 356-395 immobilised; STAG1 as analyte, equilibrium analysis (650 s association, 1,200 s dissociation), dose-response fit; 10 mM Hepes pH 7.5, 150 mM NaCl, 0.5 mM TCEP; apparent. As to conditions: both partners purified.

B1: STAG1 central region, wild type, as used in surface plasmon resonance (residues 415-915 as printed in the results) (domain or fragment)
chain: NVYHLVYSAHRPVAVAAGEFLHKKLFSRHDPQAEEALAKRRGRNSPNGNLIRMLVLFFLESELHEHAAYLVDSLWESSQELLKDWECMTELLLEEPVQGEEAMSDRQESALIELMVCTIRQAAEAHPPVGRGTGKRVLTAKERKTQIDDRNKLTEHFIITLPMLLSKYSADAEKVANLLQIPQYFDLEIYSTGRMEKHLDALLKQIKFVVEKHVESDVLEACSKTYSILCSEEYTIQNRVDIARSQLIDEFVDRFNHSVEDLLQEGEEADDDDIYNVLSTLKRLTSFHNAHDLTKWDLFGNCYRLLKTGIEHGAMPEQIVVQALQCSHYSILWQLVKITDGSPSKEDLLVLRKTVKSFLAVCQQCLSNVNTPVKEQAFMLLCDLLMIFSHQLMTGGREGLQPLVFNPDTGLQSELLSFVMDHVFIDQDEENQSMEGDEEDEANKIEALHKRRNLLAAFSKLIIYDIVDMHAAADIFKHYMKYYNDYGDIIKETLSKTRQID
In experiment [1], B1 gave a Kd of 127 nM, a koff of 0.00709 s⁻¹ and a kon of 55900 M⁻¹ s⁻¹. Also, in experiment [2], the Kd turned out to be 148 ± 22 nM.

The koff is a measure of how fast the partners let go of each other. Read a low koff as slow dissociation. The kon is the rate constant with which the complex forms. Read a low kon as slow association.
